Data reported in the supplement of paper PMC12764529.
± gives the half width of the 95% confidence interval.

experiment: folding stability dG unfold from trypsin proteolysis; higher = more stable
Outline: (§1)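 Mini-proteins designed to be under 80 residues and free of cysteine were carried in a PA-tagged cDNA display construct and digested with trypsin and with chymotrypsin. Each protease was applied at 11 threefold-diluted concentrations, alongside a no-protease condition, before sequencing. K50 came from Bayesian fitting of the sequencing counts, and unfolding free energy was obtained by comparing it with a sequence-predicted unfolded-state K50 and a shared folded-state K50, for each protease separately or for both together. Designs were retained only if their AlphaFold2 dimer inter-PAE exceeded 15.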

Row | Sequence | folding stability dG unfold [kcal/mol]
1 | SAGGSAGGSAGSMTTTTTIVKLPNGTLVLETPTVTTTTFPETGTTTTTTTVTVTVLPGLSSAGGSAGGSAGG [r11_1008_JUSTAS] | 2.47 ± 0.076
2 | SAGMKPGETIKNAKIRITYPNGEKKELKIDDVVKIVEIDEEKGVITIELKNGEKIEIKLPPGAKIEIEPSAG [r5_762_TrROS_Hall] | 3.42 ± 0.26
3 | SAGGSAGGSAGGKKIKILVKIKDLKKLKGLKPGDLALIEIEVEVKPEKKTEKKYTYKKKSAGGSAGGSAGGS [r10_1233_TrROS_Hall] | 0.432 ± 0.23
4 | SMGVKIEIDKEIIEKAIEEGKTFEADAKIKIEAYNPKTGKKIAEAEKIVKIRLEIEPPKAEPDPETGKPESA [r9_396_TrMRF] | 0.661 ± 0.071
5 | SAGMTIVIGAPPELSLEEAVEKAIEAVEALFPDKLKPGSKIKVIVRVYDPETGSVDEVTVEIDVPPGALSAG [r5_916_TrMRF] | 3.35 ± 0.22
6 | SAGGSAGGSAGGSSMSISVLEVRELPNGTLEITTVDYNPDNGYTTTTTYTLPPGQPLLISAGGSAGGSAGGS [r4_133_JUSTAS] | 1.8 ± 0.053
7 | SASSSMSSSSTSRTVPTPEGPVSITITFYPSTGKYTATITDPATSTATTVPSPGSSVEEAIAEAIALLASAG [r14_65_JUSTAS] | 1.94 ± 0.091
8 | SAGEIAEYIAEYLAQEPGFQDVEVNIKITDIEPPPNGYMYHKIDIHVRVRNPDDGKPREVNFDITFPMPSAG [r5_176_TrROS] | 1.1 ± 0.084
9 | SAGGSEKVKIEIPFRHPEDGEPIFPVRIEYEKPPNGDYKLDIEIDNFPPGMKPSPAAKDAIEEFIKSAGGSA [r2_7_TrROS] | 0.588 ± 0.07
10 | SAGSSSVTLFPEYTITTTTLPDGSRSVTINFTNPEEAKKLFEENPEIKELIEKFKKEGWDVKINAKNPSSAG [r14_873_JUSTAS] | 2.98 ± 0.21
11 | SAGGSAGGIKAPDGQEYHIILFPITIPMEQKVERPMPDGDPRPETRTVSIKIPIWFAIPPGQKISAGGSAGG [r6_526_TrROS] | 1.14 ± 0.029
12 | KLKFKVKIKNPKTNETVEVEVELNEDGTVTVKVNGKLIAKFKIVAKPKPKVETKKVKDANGNEKTYKKVKFS [r1_496_TrROS_Hall] | 1.15 ± 0.12
13 | SAGGSAGGSAGGGMAITTRPGSSEVSTTPVPSDVTASTTTPLASGEPVEVTYERVGDPTLSAGGSAGGSAGG [r7_21_JUSTAS] | 0.405 ± 0.022
14 | SAGDFLKNLPPGIKRWRPVASDPDGHFVFVFKYKTPDRPRYMVIQFPPNGRIQDIHIFPPDEADKAVNKSAG [r5_73_TrROS] | 0.72 ± 0.073
15 | SAGGSAGGSKKVEVEILLLLPESTTEEEAKALAEELAEKIKEATPADDVEVKVVILKVPKNALSAGGSAGGS [r12_522_TrMRF] | 2 ± 0.12
16 | SAGGMVKTITKPMPLEELEKVYEEAKEAIEAGYEVIFTYPLPDGTTITIKTDYETKKIVEIKTSKPVSSAGG [r13_873_JUSTAS] | -0.345 ± 0.67

Row | Sequence | folding stability dG unfold [kcal/mol]
17 | SAGGSAGGSIKPGEEVTINFLVPPGNIPEFANELMKQDGIKDIEVKYQPFPNWYMVDITIRVKSAGGSAGGS [r12_993_TrROS] | 0.863 ± 0.029
18 | SAGGSAGGSAGGSPLPGQPPEVILIKLDKPVKVGQTITLPDGYKLEVNEETGYLLIVKTSAGGSAGGSAGGS [r4_78_TrROS_Hall] | 0.705 ± 0.05
19 | SSSAEIRAYRFPDFWLVEIDLRDGDKLVGTAVFPNDGSVSLEEVAEAFRAAHPDFDVEISAIEPVPPPPPSA [r9_364_TrMRF] | 1.71 ± 0.064
20 | SAPSPSVPLDPVTTETVLVKDPEKGEEITLEILTDANSDEVLVRITYPDGSEVVLRLKKEEVEKVIEALSAG [r14_240_JUSTAS] | 4 ± 0.37
21 | SANVRRREIRIPAKDMPPNQIRDALRDLGFPPSKIENLDIERHKGNMITVKIYWTFENGQKQKIELHIPSAG [r14_30_TrROS] | -0.105 ± 0.24
22 | SAGEFEVLEVREVDGRLVVRLALPDKPEVVTIVLERHPDGSVRALIEAEGEAADRIVEALPELDEVVVASAG [r5_933_TrMRF] | 1.9 ± 0.036
23 | SAGGSAGGSAGGPEIELLEDVKPGEFVVIKVKLKDADGNEVTATFVFYNGEWYLTKIEPSAGGSAGGSAGGS [r10_288_TrROS_Hall] | 2.92 ± 0.14
24 | SAGGSAGGSAPVFTSPEEAEKYAREKLLREKPESHPDLVVNVNVTVTTEPDGTITIEIDYKESAGGSAGGSA [r18_440_JUSTAS] | 0.932 ± 0.092
25 | SSSPSGLSVTSSTVTKVETDPGPGNVTTVTVTTLNNSVLIIPLPGKPLVIPTNTTVETTYTVPPDDPSPASA [r9_531_JUSTAS] | 1.31 ± 0.073
26 | SAGGSKERTYRVLIRNPDGELEEIEVSEEELEALLSLPPSATVRIVTEDGEEKTVTINVEKVELKESAGGSA [r2_222_TrROS_Hall] | 1.74 ± 0.11
27 | SAGGSAGGSVEKLKKALEKLGIKVENVKIEVKTNKNGKKTVTIYVNGKKLSKEEIKKALKEIKSAGGSAGGS [r12_175_TrROS_Hall] | 2.99 ± 0.23
28 | SAGGSAGGSMTPANVVRIEPSPDGILRVTLTHPDGTVTTVEVSPDNLDIGAPDNVTDVTLAPVSAGGSAGGS [r20_194_TrMRF] | 0.932 ± 0.026
29 | SAGGDVTIEWFPMSEEEMKKMMEEMPPNTIMIPFPGNGYFIPVRVPDDPEEADKIAEEIRKWLEQLPSAGGS [r16_311_TrROS] | 1.81 ± 0.057
30 | SAGGSAGGSAGGVPPGAPELRLKVTVTVTTVELDEDTNELTTTTETVTVEVTVKVGETLSAGGSAGGSAGGS [r10_133_TrROS_Hall] | 0.616 ± 0.11
31 | SVKIKINWQRDPEDGRLYLMIEYRFEDDPQQAIEEIKDILERFGFKVPEIESITVDPGNGEITIPIRIPWSA [r9_876_TrROS] | 2.64 ± 0.097

experiment: folding stability dG unfold from chymotrypsin proteolysis; higher = more stable
Outline: as §1

Row | Sequence | folding stability dG unfold [kcal/mol]
32 | SAGGSAGGSAGSMTTTTTIVKLPNGTLVLETPTVTTTTFPETGTTTTTTTVTVTVLPGLSSAGGSAGGSAGG [r11_1008_JUSTAS] | 1.3 ± 0.029
33 | SAGMKPGETIKNAKIRITYPNGEKKELKIDDVVKIVEIDEEKGVITIELKNGEKIEIKLPPGAKIEIEPSAG [r5_762_TrROS_Hall] | 1.83 ± 0.24
34 | SAGGSAGGSAGGKKIKILVKIKDLKKLKGLKPGDLALIEIEVEVKPEKKTEKKYTYKKKSAGGSAGGSAGGS [r10_1233_TrROS_Hall] | 0.908 ± 0.29
35 | SMGVKIEIDKEIIEKAIEEGKTFEADAKIKIEAYNPKTGKKIAEAEKIVKIRLEIEPPKAEPDPETGKPESA [r9_396_TrMRF] | 0.36 ± 0.066
36 | SAGMTIVIGAPPELSLEEAVEKAIEAVEALFPDKLKPGSKIKVIVRVYDPETGSVDEVTVEIDVPPGALSAG [r5_916_TrMRF] | 1.99 ± 0.11
37 | SAGGSAGGSAGGSSMSISVLEVRELPNGTLEITTVDYNPDNGYTTTTTYTLPPGQPLLISAGGSAGGSAGGS [r4_133_JUSTAS] | 1.62 ± 0.045
38 | SASSSMSSSSTSRTVPTPEGPVSITITFYPSTGKYTATITDPATSTATTVPSPGSSVEEAIAEAIALLASAG [r14_65_JUSTAS] | 2.39 ± 0.022
39 | SAGEIAEYIAEYLAQEPGFQDVEVNIKITDIEPPPNGYMYHKIDIHVRVRNPDDGKPREVNFDITFPMPSAG [r5_176_TrROS] | 1.83 ± 0.068
40 | SAGGSEKVKIEIPFRHPEDGEPIFPVRIEYEKPPNGDYKLDIEIDNFPPGMKPSPAAKDAIEEFIKSAGGSA [r2_7_TrROS] | 1.29 ± 0.052
41 | SAGSSSVTLFPEYTITTTTLPDGSRSVTINFTNPEEAKKLFEENPEIKELIEKFKKEGWDVKINAKNPSSAG [r14_873_JUSTAS] | 3.95 ± 0.17
42 | SAGGSAGGIKAPDGQEYHIILFPITIPMEQKVERPMPDGDPRPETRTVSIKIPIWFAIPPGQKISAGGSAGG [r6_526_TrROS] | 1.5 ± 0.12
43 | KLKFKVKIKNPKTNETVEVEVELNEDGTVTVKVNGKLIAKFKIVAKPKPKVETKKVKDANGNEKTYKKVKFS [r1_496_TrROS_Hall] | 2.41 ± 0.27
44 | SAGGSAGGSAGGGMAITTRPGSSEVSTTPVPSDVTASTTTPLASGEPVEVTYERVGDPTLSAGGSAGGSAGG [r7_21_JUSTAS] | -0.525 ± 0.16
45 | SAGDFLKNLPPGIKRWRPVASDPDGHFVFVFKYKTPDRPRYMVIQFPPNGRIQDIHIFPPDEADKAVNKSAG [r5_73_TrROS] | 2.04 ± 0.23
46 | SAGGSAGGSKKVEVEILLLLPESTTEEEAKALAEELAEKIKEATPADDVEVKVVILKVPKNALSAGGSAGGS [r12_522_TrMRF] | 1.89 ± 0.048
